Measurements from US20200239579A1 (Genmab, published 2020).

What was measured:
[1] = target: T1, human PD-L1 (full length, on cells) (human, UniProt Q9NZQ7 19-290); test: flow cytometry on PC3 cells, PE anti-human IgG secondary, MFI (PE)
T1 construct: The entry holds the signal peptide; also called CD274; B7H1
Description: (§1) Cells (3-5×10⁴ cells/well) were incubated in polystyrene 96-well round-bottom plates (Greiner bio-one, cat. no. 650101) with serial dilutions of antibodies (range 0.0001 to 10 μg/mL in 5-fold dilution steps) in 50 μL PBS/0.1% BSA/0.02% azide (staining buffer) at 4° C. for 30 min.
(§2) After washing twice in staining buffer, cells were incubated in 50 μL secondary antibody at 4° C. for 30 min. As a secondary antibody, R-Phycoerythrin (PE)-conjugated goat-anti-human IgG F(ab′)₂ (Cat. no. 109-116-098, Jackson ImmunoResearch Laboratories, Inc., West Grove, Pa.) diluted 1:500 in staining buffer, was used for all experiments. Next, cells were washed twice in staining buffer, re-suspended in 20 μL staining buffer and analyzed on an iQue screener (Intellicyt Corporation, USA). Binding curves were analyzed using non-linear regression (sigmoidal dose-response with variable slope) using GraphPad Prism V75.04 software (GraphPad Software, San Diego, Calif., USA).

[2] = target: T1, human PD-L1 (full length, on cells); test: flow cytometry on SK-MES-1 cells, PE anti-human IgG secondary, MFI (PE)
Description: as §1, §2

PDLoneECDHisCtag [3] = target: T2, PDLoneECDHisCtag (human, UniProt Q9NZQ7 19-238); test: BLI (Octet HTX), average of 3 experiments; antibody on AHC sensor, PDLoneECD-HisCtag as analyte
T2 construct: Expressed in HEK-293F cells; theoretical molecular weight 29 kDa; also called recombinant human PD-L1 ECD; human PD-L1 (BLI); not shown: C-terminal His-tag; C-tag
Description: (§3) In a first set of experiments, affinities for recombinant-expressed human PD-L1 protein were determined using Bio-layer interferometry (BLI) on an Octet HTX instrument (ForteBio). Anti-Human IgG Fc Capture (AHC) biosensors (ForteBio) were loaded for 900 s with antibodies (1 μg/ml). […] The experiment was carried out while shaking at 1000 rpm at 30° C. Data was analyzed with Data Analysis Software v9.0.0.12 (ForteBio) using the 1:1 model and a global full fit with 1000 s association time and 200 or 1000 s dissociation time. Data traces were corrected by subtraction of a buffer reference, the Y-axis was aligned to the last 10 s of the baseline, and interstep correction as well as Savitzky-Golay filtering was applied. Data traces with a response <0.05 nm were excluded from analysis. As default, the fit using 1000 s dissociation time was used.

PDLoneECDHisCtag [4] = target: T2, PDLoneECDHisCtag; test: BLI cross-block, second antibody on PDLoneECDHisCtag held by immobilised 547; bold = blocking
Description: (§4) Antibody cross-block testing was performed using biolayer interferometry (BLI) on an Octet HTX instrument (ForteBio). Antibodies (20 μg/ml in 10 mM sodium acetate buffer pH 6.0 (ForteBio)) were immobilized on Amine-Reactive 2nd Generation (AR2G) biosensors (ForteBio) according to the instructions of the manufacturer. After a baseline (50 s) in Sample Diluent (ForteBio), biosensors containing immobilized antibodies were loaded for 500 s with PDLoneECDHisCtag (100 nM or 2.7 μg/ml), after which the association response of a second antibody (10 μg/ml) was followed for 500 s. Biosensors were regenerated by using 3 times 5 s alternating exposures to 10 mM glycine pH 2.5 and Sample Diluent. The experiment was repeated with a new set of second antibodies starting from the baseline step. Each biosensor was used 6 times. The experiment was performed at 30° C. using a shaker speed of 1000 rpm. Data was analyzed using Data Analysis Software v9.0.0.12 (ForteBio). The Y-axis was aligned to the association step and Savitzky-Golay filtering was applied. The average buffer response was subtracted from the association response of the second antibody in order to correct for the dissociation of PDLoneECDHisCtag from the immobilized antibody. The corrected association responses were plotted in a matrix format.

PDLoneECDHisCtag [5] = target: T2, PDLoneECDHisCtag; test: BLI (Octet HTX); antibody on anti-human IgG Fc capture sensor, PDLoneECDHisCtag as analyte; 1:1 global fit
Description: as §3

[6] = target: T3, cynomolgus monkey PD-L1 (full length, on CHO cells) (cynomolgus monkey (Macaca fascicularis), UniProt G7PSE7 19-290); test: flow cytometry on CHO cells transfected with cynomolgus PD-L1, PE anti-human IgG secondary, MFI (PE)
T3 construct: whole, on cells; also called PDL1 Mf; cynomolgus PD-L1
Description: as §1, §2
Binding to CHO cells expressing cynomolgus PD-L1 was determined by flow cytometry using a method as described above.

PDLoneECDHisCtag [7] = target: T2, PDLoneECDHisCtag; test: BLI cross-block, second antibody on PDLoneECDHisCtag held by immobilised 632; plain = non-blocking
Description: as §4

PDLoneECDHisCtag [8] = target: T2, PDLoneECDHisCtag; test: BLI cross-block, second antibody on PDLoneECDHisCtag held by immobilised 421-LC91S; bold = blocking
Description: as §4

[9] = target: T1, human PD-L1 (full length, on cells); test: cell-based or functional assay
PDLoneECDHisCtag [10] = target: T2, PDLoneECDHisCtag; test: BLI cross-block, second antibody on PDLoneECDHisCtag held by immobilised 547; plain = non-blocking
Description: as §4

PDLoneECDHisCtag [11] = target: T2, PDLoneECDHisCtag; test: BLI cross-block, second antibody on PDLoneECDHisCtag held by immobilised 511-LC33S; bold = blocking
Description: as §4

PDLoneECDHisCtag [12] = target: T2, PDLoneECDHisCtag; test: BLI cross-block, second antibody on PDLoneECDHisCtag held by immobilised 421-LC91S; plain = non-blocking
Description: as §4

PDLoneECDHisCtag [13] = target: T2, PDLoneECDHisCtag; test: BLI cross-block, second antibody on PDLoneECDHisCtag held by immobilised 476-N101Q-LC33S; bold = blocking
Description: as §4

T3 sequence (G7PSE7 entry or part of it): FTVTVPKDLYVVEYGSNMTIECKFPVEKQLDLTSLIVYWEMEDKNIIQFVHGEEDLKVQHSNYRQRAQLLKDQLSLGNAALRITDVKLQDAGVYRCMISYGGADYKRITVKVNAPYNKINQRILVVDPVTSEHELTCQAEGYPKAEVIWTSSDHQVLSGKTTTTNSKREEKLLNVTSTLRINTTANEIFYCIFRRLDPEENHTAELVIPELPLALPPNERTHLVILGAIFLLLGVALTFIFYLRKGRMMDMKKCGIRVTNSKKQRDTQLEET
T1 sequence (Q9NZQ7 19-290 limits assumed): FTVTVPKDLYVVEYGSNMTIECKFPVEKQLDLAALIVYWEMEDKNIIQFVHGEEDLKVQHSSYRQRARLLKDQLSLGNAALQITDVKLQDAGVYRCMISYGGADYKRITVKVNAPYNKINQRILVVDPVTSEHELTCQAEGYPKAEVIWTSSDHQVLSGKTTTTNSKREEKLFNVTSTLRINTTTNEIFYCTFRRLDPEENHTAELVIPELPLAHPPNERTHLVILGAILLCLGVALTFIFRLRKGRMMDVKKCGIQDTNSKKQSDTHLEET
T2 sequence (Q9NZQ7 19-238, form in doubt): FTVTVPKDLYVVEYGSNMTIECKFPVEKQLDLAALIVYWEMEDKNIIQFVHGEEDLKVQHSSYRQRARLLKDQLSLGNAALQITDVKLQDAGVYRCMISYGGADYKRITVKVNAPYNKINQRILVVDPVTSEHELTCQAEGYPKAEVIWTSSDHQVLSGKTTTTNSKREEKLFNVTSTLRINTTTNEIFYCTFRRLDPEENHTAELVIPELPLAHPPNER

EC50 (read off the curve) [1]	EC50 (read off the curve) [2]	Kd (PDLoneECDHisCtag [3])	koff (PDLoneECDHisCtag [3])	kon (PDLoneECDHisCtag [3])	association response of the second antibody (PDLoneECDHisCtag [4])	Kd (PDLoneECDHisCtag [5])	koff (PDLoneECDHisCtag [5])	kon (PDLoneECDHisCtag [5])	EC50 (read off the curve) [6]	association response of the second antibody (PDLoneECDHisCtag [7])	association response of the second antibody (PDLoneECDHisCtag [8])	EC50 (read off the curve) [9]	association response of the second antibody (PDLoneECDHisCtag [10])	association response of the second antibody (PDLoneECDHisCtag [11])	association response of the second antibody (PDLoneECDHisCtag [12])	association response of the second antibody (PDLoneECDHisCtag [13])	Binder
~0.04 µg/mL	~0.2 µg/mL	0.12 nM	0.00011 s⁻¹	970000 M⁻¹ s⁻¹	0 nm	0.029 nM	3.6e-05 s⁻¹	1.2e+06 M⁻¹ s⁻¹	~0.02 µg/mL	0.6 nm	0 nm						IgG1-547-FEAR (antibody, V domains shown) VH: EVQLLEPGGGLVQPGGSLRLSCEASGSTFSTYAMSWVRQAPGKGLEWVSGFSGSGGFTFYADSVRGRFTISRDSSKNTLFLQMSSLRAEDTAVYYCAIPARGYNYGSFQHWGQGTLVTVSS VL: SYVLTQPPSVSVAPGQTARITCGGNNIGSKSVHWYQQKPGQAPVLVVYDDNDRPSGLPERFSGSNSGNTATLTISRVEAGDEADYYCQVWDSSSDHVVFGGGTKLTVLG
~0.01 µg/mL	~0.2 µg/mL	5.1 nM	0.0048 s⁻¹	960000 M⁻¹ s⁻¹					~0.02 µg/mL			~0.05 µg/mL	0.7 nm	0 nm	0.3 nm	0 nm	IgG1-511-LC33S-FEAR (antibody, V domains shown) VH: QVQLVQSGSELKKPGASVMVSCKASGYTFTSYVMNWVRQAPGQGLEWMGWINSYTGNPTSAQGFTGRFVFSFDTSVNTAYLQISSLKAEDTAVYYCARGYCTSTSCYLDYWGQGTLVTVSS VL: SYELTQPPSVSVSPGHTARITCSGDALPKKYASWFQQKSGQAPVLVIYEDSKRPSGIPERFSGSTSGTMATLTISGAQVEDETDYYCYSADTSGTHRVFGGGTKLTVLG
~0.03 µg/mL	~0.1 µg/mL	0.31 nM	0.00025 s⁻¹	800000 M⁻¹ s⁻¹	0 nm	0.088 nM	6.4e-05 s⁻¹	730000 M⁻¹ s⁻¹	~0.01 µg/mL	0.6 nm	-0.1 nm			0 nm			IgG1-338-FEAR (antibody, V domains shown) VH: EVQVVESGGGLVQPGGSLRLSCAASGFTFSRFWMSWVRQAPGKGLEWVANIKQDGGEKYYVDSVKGRFTISRDNAKNSLYLQMNSLRGEDTAVYYCARDDNWNGHFDYWGQGTLVTVSS VL: DIQMTQSPSTLSASVGDRVTITCRASQSISSWLAWYQQKPGKAPNLLIYKASSLESGVPSRFSGSGSGTEFTLTISSLQPDDFATYYCQQYYGSYITFGQGTRLEIKR
